Values quoted from earlier work as cited in paper PMC4618378.

Columns and labels:
[1] = biological target: cone PDE6 gamma-subunit (Homo sapiens) (UniProt Q13956)
[2] = biological target: rod PDE6 gamma-subunit (Homo sapiens) (UniProt P18545)
Sequence of UniProt P18545 (P18545 whole entry): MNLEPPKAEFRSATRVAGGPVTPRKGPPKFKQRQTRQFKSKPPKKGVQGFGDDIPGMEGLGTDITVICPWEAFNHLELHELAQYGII

Sequence of UniProt Q13956 (Q13956 whole entry): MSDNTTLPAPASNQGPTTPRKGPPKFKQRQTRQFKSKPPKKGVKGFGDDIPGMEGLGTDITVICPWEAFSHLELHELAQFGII

Ki [1]: 0.078 nM
Ki [2]: 0.155 nM
Substance: PDE6C (from UniProt P51160)
